The record followed here is US20200277366A1 (UCB, published 2020).

Values joined by “and” are separate entries in the source; they are usually repeats but may differ in a detail not shown here. Equal entries are not always repeated.

As usually defined, the Kd is the free concentration of one partner at which half of the binding sites on the other are occupied at equilibrium, for simple one-to-one binding. A higher Kd goes with lower affinity. By koff is commonly meant the rate constant with which the complex falls apart. A lower koff goes with a long-lived complex. Usually kon stands for the second-order rate constant of association.

Experiment [1] deals with T1, human TNF-alpha (human, UniProt P01375 77-233). Briefly: cell-based or functional assay.
Experiment [2] addresses T1, human TNF-alpha. Put plainly: SPR (Biacore T200), mouse IgG captured by anti-mouse IgG Fc, human TNF injected at 20 nM. Here is the method:
Recombinant rat/mouse chimeric IgG and Fab molecules were screened in the HEK-293-CD40-BLUE reporter assay at a number of concentrations to enable the calculation of EC50 values and determine the maximum percentage inhibition. […] IgG were also analysed in a Biacore experiment to determine binding affinities for human TNF. The assay format of the Biacore experiment was capture of the mouse IgG by immobilised anti-mouse IgG-Fc then titration of human TNF over the captured surface. BIA (Biamolecular Interaction Analysis) was performed using a Biacore T200 (GE Healthcare). Affinipure F(ab′)2 Fragment goat anti-mouse IgG, Fc fragment specific (Jackson ImmunoResearch) was immobilised on a CM5 Sensor Chip via amine coupling chemistry to a level of ˜5000 response units (RUs). HBS-EP buffer (10 mM HEPES pH 7.4, 0.15 M NaCl, 3 mM EDTA, 0.05% Surfactant P20, GE Healthcare) was used as the running buffer with a flow rate of 10 μL/min. A 10 μL injection of mouse IgG at 0.5 μg/mL was used for capture by the immobilised anti-mouse IgG-Fc. Human TNF, was injected over the captured mouse IgG twice at 20 nM at a flow rate of 30 μL/min. The surface was regenerated by 2×10 μL injection of 40 mM HCl, interspersed by a 5 μL injection of 5 mM NaOH at a flowrate of 10 μL/min. Background subtraction binding curves were analysed using the T200evaluation software (version 1.0) following standard procedures.
Neutralisation was determined using the HEK-293-CD40-BLUE reporter assay (Invivogen). […] Biacore analysis was performed to determine binding kinetics.

Experiment [3] deals with T1, human TNF-alpha. Briefly: SPR (Biacore T200), Fab captured by anti-human F(ab')2, human TNF at 5 nM. Here is the method:
(§1) The assay format of the Biacore experiment was capture of the rat/human chimeric Fabs by immobilised anti-human F(ab′) then titration of human or cynomolgus TNF over the captured surface. BIA (Biamolecular Interaction Analysis) was performed using a Biacore T200 (GE Healthcare). Affinipure F(ab′)2 Fragment goat anti-human IgG-F(ab′)2 fragment specific (Jackson ImmunoResearch) was immobilised on a CM5 Sensor Chip via amine coupling chemistry to a level of ˜5000 response units (RUs). HBS-EP buffer (10 mM HEPES pH 7.4, 0.15 M NaCl, 3 mM EDTA, 0.05% Surfactant P20, GE Healthcare) was used as the running buffer with a flow rate of 10 μL/min. A 10 μL injection of rat/human chimeric at 0.5 μg/mL was used for capture by the immobilised human IgG-F(ab′)2. Human or cynomolgus TNF, was injected over the captured rat/human chimeric Fab at (5 nM or 3.125 nM respectively) at a flow rate of 30 μL/min. The surface was regenerated by 2×10 μL injection of 50 mM HCl, interspersed by a 5 μL injection of 5 mM NaOH at a flowrate of 10 μL/min. Background subtraction binding curves were analysed using the T200evaluation software (version 1.0) following standard procedures.
Background: In SPR one partner is held on a chip, and binding of the other changes the refractive index at the surface.

A further experiment deals with T2, cynomolgus TNF-alpha (cynomolgus, UniProt P79337 77-233).
T2 construct: also called cyno TNF; cTNF
Put plainly: SPR (Biacore T200), Fab captured by anti-human F(ab')2, cynomolgus TNF at 3.125 nM. On the procedure: as §1

B1: CA2109 IgG (recombinant rat/mouse chimeric IgG, rat variable regions on mouse gamma-1 / mouse kappa) (antibody, V domains shown)
VH: EVQLHQSGAALVKPGASVKLSCKTSGYTFTDNYIHWVKQSPGKSLEWIGYINPSSAYAHYNEKFKTKATLTVDKSTNTAYMELSRLTSEDSATYFCTRRYYSAMPFAYWGQGTLVTVSS
VL: DIVMTQSPASLSASLGETVTIECRASEDIYNGLAWYQQKPGKSPHLLIYNSNTLHTGVPSRFSGTGSGTQYSLKINSLQSEDVATYFCQQNYDFPLTFGSGTKLELK
notes: Rat variable regions cloned into mouse gamma-1 IgG and mouse kappa expression vectors, expressed in HEK-293; also called fwk18 IgG
Take B1: in the experiment with human TNF-alpha [1], the “EC50 (ng/ml), HEK-293-CD40-BLUE reporter assay” value was 0.31 ng/mL. In the experiment with human TNF-alpha [2], the Kd was determined as 0.025 nM, the koff amounted to 0.000119 s⁻¹ and the kon is 4.7e+06 M⁻¹ s⁻¹.

B2: 02109 rat/human chimeric Fab (Fab, V domains shown)
VH: EVQLHQSGAALVKPGASVKLSCKTSGYTFTDNYIHWVKQSPGKSLEWIGYINPSSAYAHYNEKFKTKATLTVDKSTNTAYMELSRLTSEDSATYFCTRRYYSAMPFAYWGQGTLVTVSS
VL: DIVMTQSPASLSASLGETVTIECRASEDIYNGLAWYQQKPGKSPHLLIYNSNTLHTGVPSRFSGTGSGTQYSLKINSLQSEDVATYFCQQNYDFPLTFGSGTKLELK
notes: Rat variable regions with human Fab constant regions; not the humanised graft; also called CA2109
For the molecule B2, in the experiment with human TNF-alpha [3], the Kd is 0.0349 nM and 0.035 nM; the koff turned out to be 0.000143 s⁻¹; the kon worked out at 4.09e+06 M⁻¹ s⁻¹. Besides, in the experiment with cynomolgus TNF-alpha, the Kd is 0.0274 nM and 0.027 nM; the koff was 0.000102 s⁻¹; the kon was 3.71e+06 M⁻¹ s⁻¹.
